Experimental data taken from the Immune Epitope Database (IEDB).

Columns and labels:
[1] = target: HLA-B*40:01; test: IEDB peptide-MHC binding, purified MHC/competitive/radioactivity; filed as Kd, often an IC50 or EC50 that approximates it; ≥ and ≤ were set here for values at or beyond the usual limits of such assays
[2] = target: HLA-B*44:03; test: as above
[3] = target: HLA-B*44:02; test: as above
[4] = target: HLA-A*24:02; test: as above
[5] = target: HLA-A*29:02; test: as above
[6] = target: HLA-A*30:02; test: as above
[7] = target: HLA-A*23:01; test: as above
[8] = target: HLA-A*01:01; test: as above
[9] = target: HLA-A*26:01; test: as above
[10] = target: HLA-B*07:02; test: as above
[11] = target: HLA-A*30:01; test: as above
[12] = target: HLA-A*32:01; test: as above
[13] = target: HLA-A*02:03; test: as above; conditions: source organism: Vaccinia virus WR
[14] = target: HLA-A*02:06; test: as above; conditions: source organism: Vaccinia virus WR
[15] = target: HLA-A*02:02; test: as above; conditions: source organism: Vaccinia virus WR
[16] = target: HLA-B*08:01; test: as above; conditions: source organism: Vaccinia virus WR
[17] = target: HLA-B*53:01; test: as above; conditions: source organism: Dengue virus 2 Jamaica/1409/1983
[18] = target: HLA-B*46:01; test: IEDB peptide-MHC binding, purified MHC/direct/fluorescence; filed as Kd, often an IC50 or EC50 that approximates it; ≥ and ≤ were set here for values at or beyond the usual limits of such assays; conditions: source organism: West Nile virus
[19] = source organism: Dengue virus 1 Nauru/West Pac/1974
[20] = source organism: SARS coronavirus Tor2
[21] = source organism: Mammarenavirus lassaense
[22] = source organism: Dengue virus 4 Philippines/H241/1956
[23] = source organism: Dengue virus 1 Brazil/97-11/1997
[24] = source organism: Mammarenavirus guanaritoense
[25] = source organism: Mammarenavirus brazilense
[26] = source organism: Dengue virus 2 Jamaica/1409/1983
[27] = source organism: Dengue virus 3 Martinique/1243/1999
[28] = source organism: Lymphocytic choriomeningitis virus (strain Armstrong)
[29] = source organism: Dengue virus 1 Singapore/S275/1990

AEPPFGESYI
Kd [1, 19]: 183 nM | Kd [2, 19]: 877 nM | Kd [3, 19]: 596 nM

AFRDVLVVL
Kd [4, 20]: 6820 nM | Kd [5, 20]: 14000 nM | Kd [6, 20]: 9830 nM | Kd [7, 20]: 1970 nM | Kd [8, 20]: 15900 nM | Kd [9, 20]: 13000 nM

AGFSAGLTY
Kd [4, 21]: ≥ 77500 nM | Kd [5, 21]: 63.6 nM | Kd [6, 21]: 528 nM | Kd [7, 21]: ≥ 43800 nM | Kd [8, 21]: ≥ 23900 nM | Kd [9, 21]: ≥ 77900 nM

AGPFSQHNY
Kd [6, 22]: 472 nM

APHVGLGLET
Kd [10, 23]: 1160 nM

ASLGPLRETY
Kd [4, 20]: ≥ 70300 nM | Kd [5, 20]: 557 nM | Kd [6, 20]: 154 nM | Kd [7, 20]: ≥ 70000 nM | Kd [8, 20]: ≥ 114000 nM | Kd [9, 20]: ≥ 81500 nM

AYEHKNRSRL
Kd [4, 24]: ≥ 26500 nM | Kd [5, 24]: ≥ 20900 nM | Kd [7, 24]: 10200 nM

AYSFLPGVY
Kd [4, 20]: 30.8 nM | Kd [5, 20]: 4.52 nM | Kd [6, 20]: 0.267 nM | Kd [7, 20]: 7400 nM | Kd [8, 20]: 6520 nM | Kd [9, 20]: 6390 nM

DYDCVSFCY
Kd [4, 20]: ≥ 20200 nM | Kd [5, 20]: 145 nM | Kd [6, 20]: 1400 nM | Kd [7, 20]: ≥ 20900 nM | Kd [8, 20]: ≥ 58000 nM | Kd [9, 20]: 17600 nM

DYSVLYNSTF
Kd [4, 20]: 24.2 nM | Kd [5, 20]: 2540 nM | Kd [6, 20]: ≥ 60400 nM | Kd [7, 20]: 159 nM | Kd [8, 20]: ≥ 70400 nM | Kd [9, 20]: 4220 nM

EALRGFLLY
Kd [5, 25]: 117 nM | Kd [6, 25]: 2270 nM | Kd [8, 25]: 3730 nM | Kd [9, 25]: 1580 nM | Kd [11, 25]: 5720 nM | Kd [12, 25]: ≥ 60200 nM

EALYYVHSL
Kd [13]: 5770 nM | Kd [14]: 14800 nM | Kd [15]: 14200 nM | Kd [16]: 2.11 nM

EEVQVLALEP
Kd [2, 26]: ≥ 23400 nM

ELCEDTMTY
Kd [9, 23]: 1740 nM

ETAWDFGSVG
Kd [9, 22]: 138 nM

FLGEDGCWY
Kd [8, 22]: 277 nM

FVEGVSGGSW
Kd [9, 26]: 14200 nM | Kd [17]: 48.8 nM

GPMPVTVASA
Kd [10, 23]: 53.3 nM

GVIITWIGM
Kd [9, 26]: 15700 nM

HLAIMAVFKM
Kd [9, 22]: 9580 nM

IDETCEHEY
Kd [4, 20]: ≥ 77600 nM | Kd [5, 20]: 2850 nM | Kd [6, 20]: 162 nM | Kd [7, 20]: ≥ 77800 nM | Kd [8, 20]: 11000 nM | Kd [9, 20]: ≥ 32000 nM

IEREIPERSW
Kd [2, 22]: 649 nM | Kd [3, 22]: 61.6 nM

IMRNLTNLL
Kd [4, 24]: ≥ 33100 nM | Kd [5, 24]: 305 nM | Kd [7, 24]: 6150 nM

IPDVIELAY
Kd [4, 25]: ≥ 33500 nM | Kd [5, 25]: 3150 nM | Kd [6, 25]: 2760 nM | Kd [7, 25]: 18600 nM | Kd [8, 25]: 5510 nM | Kd [9, 25]: ≥ 38300 nM

IPLQWIASA
Kd [10, 27]: 88.4 nM

KCWLVTNGSY
Kd [4, 28]: ≥ 70300 nM | Kd [5, 28]: 937 nM | Kd [6, 28]: 27.4 nM | Kd [7, 28]: ≥ 70000 nM | Kd [8, 28]: 17300 nM | Kd [9, 28]: ≥ 69700 nM

KEIAETQHG
Kd [3, 26]: 62.1 nM

KEISNMLNI
Kd [1, 29]: 191 nM | Kd [2, 29]: 68.7 nM | Kd [3, 29]: 74.6 nM

KMETLQRKY
Kd [6, 26]: ≥ 76900 nM

KVDAIDGEY
Kd [6, 26]: 171 nM | Kd [8, 26]: 953 nM

LEHGSCVTTM
Kd [1, 26]: 64.8 nM | Kd [2, 26]: 1080 nM

LFDVIPVSY
Kd [5, 24]: 67.3 nM | Kd [6, 24]: 1910 nM | Kd [8, 24]: 613 nM | Kd [9, 24]: ≥ 51900 nM | Kd [11, 24]: ≥ 21100 nM | Kd [12, 24]: 9750 nM

LIFRGPNVV
Kd [4, 28]: ≥ 77500 nM | Kd [5, 28]: ≥ 54700 nM | Kd [6, 28]: 9970 nM | Kd [7, 28]: 15400 nM | Kd [8, 28]: 10800 nM | Kd [9, 28]: ≥ 77900 nM

LLLLVAPAY
Kd [18]: ≥ 20000 nM

LTHSINALI
Kd [4, 25]: 6720 nM | Kd [5, 25]: 12800 nM | Kd [7, 25]: 1010 nM

LTMKNKAWM
Kd [9, 27]: ≥ 45300 nM
